Measurements as given in article PMC9110474.

Assays:
[1] = biological target: TOM complex (translocase of the mitochondrial outer membrane), human, endogenous core complex (human (endogenous in HeLa or U2OS)) (UniProt O96008); assay: native gel or EMSA; competition: mitochondria preincubated on ice for 10 min with 20 µg pSu9-DHFR-His, 1 mM methotrexate and 1 mM NADPH, depolarized, then import of radiolabeled PINK1; BN-PAGE, 700 kDa species quantified (clogger and TOM complex)
[2] = biological target: TOM complex (translocase of the mitochondrial outer membrane), human, endogenous core complex (human (endogenous in HeLa or U2OS)) (UniProt O96008)

pSu9-DHFR-His
PINK1 association with the TOM complex left with pSu9-DHFR, % of control [1]: < 40%
integration of radiolabeled TOM40 into the MOM of mitochondria preincubated with pSu9-DHFR, % of untreated mitochondria [2]: 60%
